The supplement of paper PMC12042874
± gives the uncertainty stated by the source.

experiment: amyloid nucleation score (Sup35N fusion, yeast selection) (log enrichment); library NNK1; higher = more nucleation; inactive = no reads after selection
Method in brief: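 Sup35N was fused to peptides of 20 random codons and expressed in psi-negative yeast, which were induced with 100 μM copper sulfate for 24 hours and then grown on medium lacking adenine and uracil for 7 days at 30°C. Plasmid inserts from input and output were sequenced on Illumina. The nucleation score is the DiMSum log enrichment of output over input reads, centred on the mode score of non-aggregating sequences. Sequences with under 100 input reads were left out, and random libraries had three technical output replicates.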

Row | Substance | amyloid nucleation score
1 | RHYGGAFQRLYRMSGPMT | -1.05 ± 0.96
2 | QMLIAGGAKTGTPLFPGASS | 0.358 ± 0.5
3 | QDLICVFMGCVIS | 7.942 ± 0.044
4 | VNAPST | 0.413 ± 1.1
5 | SSWFFYQNIAVSYSNKAINF | 0.379 ± 0.17
6 | YDIGFVI | -0.067 ± 0.28
7 | TYYNLYSVRGGCFAHDVLAC | 0.234 ± 0.31
8 | VGSNYVCVI | -0.545 ± 0.5
9 | VFLLVPWPVSFGGRIHACEW | 0.286 ± 0.47
10 | CRAQGFDASSHYCYLFLALS | -0.427 ± 1.4
11 | MLYKIRDQIYIRHGSFEG | 0.224 ± 0.28
12 | GYYIEMLYFMEALDIS | inactive
13 | ATLMYWASSWSCWFTKGTAV | -0.413 ± 0.37
14 | WLMAKGRYLSAFTVSFIRSY | -1.28 ± 1.8
15 | LGVIYLRLWFQSGGRQVLEG | 0.089 ± 0.42
16 | DMLFPAMRYAVHDVSVSAGN | 0.582 ± 0.64
17 | SFMVFYNLVCLHMMSNFVAL | 0.377 ± 0.68
18 | IKLGVFRIKSSFN | 0.708 ± 0.34
19 | CLGDTWWNMNKSGTEVVCPV | 0.858 ± 1.1
20 | RNVRGSSKT | 1.37 ± 0.48
21 | DHGHCISPNTSYFMVDWFLK | 0.473 ± 0.39
22 | VHKAGDFNVTAFVNSNVFVS | inactive
23 | SSGFVYIYSSKSLGANSKNL | -0.176 ± 1
24 | WKIRKKA | 0.155 ± 0.7
25 | SALILVFFYWA | 1.31 ± 0.3

Row | Substance | amyloid nucleation score
26 | YILSSLPFRHLLGVNICFTA | -0.364 ± 0.31
27 | TVVHPFSYA | 0.487 ± 0.49
28 | VTIYFILRNGGRVSESLNPW | 7.19 ± 0.084
29 | WSDYVDNPSVSARRSRQFRL | -1.21 ± 1.6
30 | WAICDSLLVLVSRKGSASSP | -1.56 ± 1.4
31 | VLYLDLFWRPPSLKGLL | -0.17 ± 0.32
32 | CGFVEMTSRSKIHSLICWPG | 1.53 ± 0.44
33 | YSMSRMIIKVKLQRHVMNYS | -0.88 ± 0.73
34 | WVGQVLGREENCASASSFSE | -1.89 ± 2.7
35 | RSSMYKYV | 0.523 ± 0.26
36 | AYLGASREIYCYGPMYYMLP | 2.97 ± 0.098
37 | RVDTL | 0.694 ± 1.1
38 | KFIFVGNGECMRPGCSDDSL | 1.99 ± 0.38
39 | NVYDMFIKFGVGVASSVSAC | -1.48 ± 1.9
40 | YCFSSSYVWHNRDGSINMFK | inactive
41 | NWGWGGEFRRNMFRIVS | inactive
42 | VNFYDRAYRIWCCRNASE | 3.34 ± 0.088
43 | SGSMVRDRW | 1.83 ± 0.27
44 | ASFRNRPCVQCPGLCILRLS | 0.002 ± 0.24
45 | YLQEWRIGRVGCVGFTCRCR | 0.279 ± 0.45
46 | RSCELGFDPVKKFFRIRIWG | -0.006 ± 0.47
47 | STCLGGERSYRYVMWLVLVV | 0.148 ± 0.42
48 | QGSDSSNEATTAPLCRLRIW | 1.11 ± 0.94
49 | CPLEDLIKRLNHLYVH | 0.21 ± 0.6
50 | NRVHKADHVTYY | inactive

Row | Substance | amyloid nucleation score
51 | NARWV | 0.613 ± 0.38
52 | FRRLHRYRWDNECLGMQVGS | -1.48 ± 2.1
53 | YFTNPRCRLDAHGGFANQWW | -0.977 ± 1.4
54 | RDASRVVCMRPRWGPFQVVV | 0.222 ± 0.69
55 | YFDRNFARYFCYRVTTT | 1.48 ± 0.2
56 | TLDFMLIKLSERLHLRC | 0.589 ± 0.3
57 | KCSSLLSHMWLCITLVTVLA | 0.357 ± 0.57
58 | KPDSMFDFER | -0.675 ± 1.3
59 | DLFFIG | 0.188 ± 0.38
60 | LASLDLCVISLMNNHVDRTD | 0.94 ± 0.29
61 | ESHMRNHR | 0.312 ± 0.37
62 | KLSVGLRYCRPATRTSAHVM | 0.271 ± 0.35
63 | TWQFCDVRL | -0.064 ± 0.39
64 | SFMSGSFEWPRSYRALGFKA | -0.719 ± 1.2
65 | RFGGD | -0.388 ± 0.57
66 | KWVHEIRSSMVCVYLAGNSR | 0.677 ± 0.79
67 | HGRIGLVWESGKCMTYLREV | 0.191 ± 0.37
68 | DCCGFNFYWISPRFHLRECL | 0.831 ± 0.27
69 | SALLEQRLSSGLDVAISLRI | -0.368 ± 0.9
70 | QLQTSQRV | inactive
71 | DLIRPLSCTRVLSPNFLCS | -0.54 ± 0.66
72 | MEMLGGNRL | 1.23 ± 0.36
73 | YKANCVETLSWSFGHNFFLR | -0.481 ± 0.49
74 | WTVSSVIGNGWQCNRSYG | 0.247 ± 0.27
75 | GGIYANYNFGYLARTESGLG | 1.04 ± 0.7

Row | Substance | amyloid nucleation score
76 | KCMFVESKSRDNCVMSNES | -0.055 ± 0.9
77 | SSQVIVCDVYSQVTRFSFCE | 0.557 ± 0.29
78 | LLIGWASEDHRYKGISNGGG | 0.598 ± 0.34
79 | LKWWWIQNAGCTVVIMVL | -0.701 ± 0.54
80 | AHKWCVVCQTV | 0.338 ± 0.52
81 | KRHVSGKVQMGWGVRRRPV | 0.178 ± 0.72
82 | CYGGWVYLLRIALCGEDSVI | 0.58 ± 0.58
83 | TLFMRVGYR | 3.87 ± 0.12
84 | CTTLGLQPFRDWRFAGKLAR | 0.049 ± 1.1
85 | MQRLLYACVHYRESAQVSTL | 1.93 ± 0.37
86 | QMDMCDYERFYLA | inactive
87 | GAILENYALFESRTYFMLHC | 0.383 ± 0.66
88 | FFWEY | -0.312 ± 1.5
89 | AYILRWFFTSECRSVQSTSK | -0.105 ± 0.45
90 | PIIVDRCCFDYIRRVNVLYN | 0.677 ± 0.48
91 | RLPWLRAQNANLVLLLVNRR | 4.9 ± 0.074
92 | WYGDSPECEV | 0.141 ± 0.73
93 | NFGVSSNLCGGIWIYW | 4.74 ± 0.074
94 | SILISMYGGSSKKCQRFEEG | 0.977 ± 0.47
95 | MGDFND | -1.08 ± 1.4
96 | ACHQGGMTSPNTRSTLFRVW | 0.8 ± 0.51
97 | FWGCTQMSRLDATDVSL | 0.867 ± 1
98 | CVTLCSNPWDQKRFICIYRH | -0.021 ± 0.55
99 | PFFTIKWCNFSSFIGYEPLL | -0.161 ± 0.31
100 | DPHYL | inactive

Row | Substance | amyloid nucleation score
101 | NGRCKYLRQNIFSVLLIMRR | 0.324 ± 1
102 | VPGRWHSLCASYTLYA | 0.469 ± 0.72
103 | YSLSNVEGYYTYYYRT | -0.071 ± 0.28
104 | SMVTQLRSDNLGHWANSESR | 0.108 ± 0.34
105 | KNLGTRGHSMY | -0.164 ± 0.31
106 | LKRDSFWVLIKWTRLDMGVS | 0.056 ± 0.37
107 | CNLNAGGKRWADRT | 0.3 ± 0.85
108 | WSKCNVRMCWH | -0.122 ± 0.64
109 | TTGSGSRSNWWYGSPNYYLS | -0.867 ± 0.53
110 | KVCTHYSTHRWLSSQPSKVV | -0.696 ± 1.9
111 | QRFHFLNRL | -0.411 ± 1.1
112 | SSSSYIYCYFFPQSMVMVFS | 3.66 ± 0.1
113 | KAFWSLCYVERGRWYGAVNA | 0.128 ± 1
114 | LCALSEVLVLCDSY | 0.29 ± 0.96
115 | SVDVHYAGRSC | 0.552 ± 0.36
116 | IFVSSVRGAPYIYKCTKSRM | -0.504 ± 0.52
117 | LCEMLF | -0.202 ± 0.61
118 | MFVFFSTMSIR | inactive
119 | RGCPAFDNVTSYDESSEWSY | 0.365 ± 0.62
120 | SNTTIFFSFNRVPTISLNHS | 3.82 ± 0.1
121 | VVLNCYIYVIPA | 3.39 ± 0.13
122 | KYPYLYLPIRMLNRQHARVG | 0.449 ± 0.62
123 | WHGVFKTRNRLCGTLPWFCA | -0.143 ± 0.51
124 | VRKEKRNCAGLGRTVVWVRG | 0.461 ± 0.35
125 | LDCELLQRNFSNTKGHPIYR | 0.052 ± 0.35

Row | Substance | amyloid nucleation score
126 | SLKFEYCFSPSNVAAVDWGT | -0.34 ± 0.98
127 | YIQLVI | -0.279 ± 0.32
128 | MRQQGWYTESTFVMCQFTGG | 2.04 ± 0.088
129 | HSKRYCGACDLGYLCYRCNI | -0.333 ± 0.24
130 | DRKVGNHLFTRVCDEATMLM | 1.75 ± 0.41
131 | TVHFSDWMIPNTRLEATCGM | 0.158 ± 0.31
132 | ILISVSLNMWY | 2.43 ± 0.13
133 | HRNRFYVVLYRNLDLWL | -0.197 ± 0.23
134 | LVSCDIVWWTAMFGLLARMF | 0.591 ± 0.37
135 | YKASG | 0.794 ± 1.1
136 | LDRVWMYTIRLLQMKAMVLP | 0.497 ± 0.64
137 | ELLQD | 0.038 ± 0.59
138 | SMFYLSKFAVEFWRRMS | -0.097 ± 0.44
139 | TSVTSVMWPYSPNGYLAVFR | -0.062 ± 1.2
140 | FMSYFVPSQQYLTASSRQKT | -0.544 ± 1.1
141 | RVFRASNDR | 0.241 ± 1.1
142 | PSALFFSVTLKVHINLAISS | 0.431 ± 0.53
143 | DTNTSIMHTIPRVGLNGCRR | 10.02 ± 0.051
144 | ILSICLSLVFRPSVMIEYLR | 0.191 ± 0.26
145 | VGIILRLVQYSDEYYSCYAG | -2.62 ± 2.4
146 | PILKQNHWRDFGNCLAKRRE | -0.281 ± 0.82
147 | LAELWECDKSLKSPGAYWVL | 1.49 ± 0.73
148 | CMRFAPMMHANCHVKARWHR | 0.696 ± 0.6
149 | WNYTGSFFMQYSMGISRRDG | 1.59 ± 0.2
150 | STGPAFDSKGVSTAMSRASF | inactive

Row | Substance | amyloid nucleation score
151 | LYKLTEFQAYKVIRPSACCV | -1.13 ± 2.4
152 | WDFFYLMSMLPRDEVGFL | 0.756 ± 0.46
153 | KFSNWTDV | -0.164 ± 1.1
154 | VCYCLKWEAMSVKLLCMGCA | -0.688 ± 0.6
155 | IEDTGIYRSVTFTVAMTYTV | -0.373 ± 0.38
156 | APSWYRSLMRSSA | 0.159 ± 0.34
157 | SWCNAYPQWWVRSLSMPS | -0.236 ± 0.55
158 | VRFGWVSSTPVVGVSQLCAH | -0.305 ± 1.1
159 | IRGFSSSISLWWVDGTVANV | -0.422 ± 0.49
160 | EFQMLEFYRANLPSKSQNTL | -0.777 ± 0.43
161 | EFGASRNAYTMRRILENGSA | -0.123 ± 0.38
162 | TSRFPKASKSRLTRDCP | 0.323 ± 0.35
163 | ALSGCERRNHLSCRSNLRDG | -0.542 ± 0.91
164 | LCINLVYRKISPALRF | -0.859 ± 0.75
165 | DFLDNVFVTSECHVN | 0.255 ± 0.6
166 | MAVLGALNRSGNMGVGLFYN | -0.647 ± 0.4
167 | YMCHKRAFV | 3.32 ± 0.12
168 | KSQKG | 0.008 ± 0.36
169 | EMIMVGSMYSRGNSTCFPRA | 0.777 ± 0.17
170 | CVSHNVILRK | 2.4 ± 0.092
171 | IGSMRMVSGLRFMRFVDHFS | -0.316 ± 0.42
172 | FNKYYMFEST | -0.038 ± 0.33
